Tested on: GST-TRD (TRD domain of MECP2)
Assay: GST-pulldown of MBP-ADD
Format: binding
Conditions: 1 μg each protein; 25 mM Tris/HCl pH 8, 200 mM KCl; 1 h, 6°C; SDS-PAGE

B1: D529A/D530A/D531A triple mutation: D529A/D530A/D531A triple mutant of the ADD domain (MBP‐ADD in pulldown, mVenus‐ADD in cells) (protein)
chain: RERLVYEVRQKCRNIEDICISCGSLNVTLEHPLFVGGMCQNCKNCFLECAYQYAAAGYQSYCTICCGGREVLMCGNNNCCRCFCVECVDLLVGPGAAQAAIKEDPWNCYMCGHKGTYGLLRRREDWPSRLQMFFANNHD
modifications: left off: MBP, N-terminal, kept
- pulldown of MBP-ADD by GST-TRD: reduced

Source: PMC9798253 (Protein Science : A Publication of the Protein Society, 2023)
